In patent US20210371527A1 (published 2021) one finds EC50 data, which are given here for two molecules.

Like-named read-outs stand apart in the source and are kept apart here.

Test [1] has as its target T1, human CD4 on HPB-ALL cells (UniProt P01730 26-458). Nature of the test: flow cytometry. A general note: Flow cytometry measures light scatter and fluorescence of single cells or particles in a stream.
The target in test [2] is T1, human CD4 on HPB-ALL cells. The test is described as follows: flow cytometry. This is another data set of the same source.

B1: deferoxamine conjugated humanized IAB41-1 minibody (other)
chain: EIVLTQSPATLSLSPGERATLSCSARSSVSYLYWYQQKPGQAPRLLIYDTSNLASGIPDRFSGSGSGTDFTLTISRLEPEDAAVYYCQQWSDYPLTFGGGTKLEIKGSTSGGGSGGGSGGGGSSQVQLVQSGAEVKKPGASVKVSCKASGYSFANYWMHWVRQAPGQRLEWIGALYPGNVDTTYNQKFQGRVTITRDTSASTAYMELSSLRSEDTAVYYCTRMGTTLEAPLDYWGQGTLVTVSSEPKSSDKTHTCPPCPPCGGGSSGGGSGGQPREPQVYTLPPSREEMTKNQVSLTCLVKGFYPSDIAVEWESNGQPENNYKTTPPVLDSDGSFFLYSKLTVDKSRWQQGNVFSCSVMHEALHNHYTQKSLSLSPG
modifications: deferoxamine (Df) chelator conjugated; sites of conjugation not stated
One may read the EC50 as the concentration giving half of the maximal effect. Read a high EC50 as lower potency in that assay. For the molecule B1, in test [1], a half-maximal response (EC50) required 3.05 nM.

B2: humanized IAB41-1 minibody (other)
chain: B1 chain
In turn, B2 gave an EC50 in test [2] of 1.77 nM.
